{"source": "patent US12216128B2", "about": "“Methods for guiding therapy decisions in seizure disorders” (Mayo Foundation for Medical Education and Research, priority 2018, dated 2025)", "key": {"[1]": {"system": "children with FIRES", "settings": "Kenney-Jung et al. 2016; cited from earlier work"}, "[2]": {"biological_target": "T1, human IL-1R (Homo sapiens, UniProt P14778)", "T1 construct": "Human embryonic kidney (HEK) cells expressing murine and human IL-1 receptor proteins; host or cells: HEK-Blue IL1R (HEK293-derived reporter cells)", "T1 sequence (P14778 18-569)": "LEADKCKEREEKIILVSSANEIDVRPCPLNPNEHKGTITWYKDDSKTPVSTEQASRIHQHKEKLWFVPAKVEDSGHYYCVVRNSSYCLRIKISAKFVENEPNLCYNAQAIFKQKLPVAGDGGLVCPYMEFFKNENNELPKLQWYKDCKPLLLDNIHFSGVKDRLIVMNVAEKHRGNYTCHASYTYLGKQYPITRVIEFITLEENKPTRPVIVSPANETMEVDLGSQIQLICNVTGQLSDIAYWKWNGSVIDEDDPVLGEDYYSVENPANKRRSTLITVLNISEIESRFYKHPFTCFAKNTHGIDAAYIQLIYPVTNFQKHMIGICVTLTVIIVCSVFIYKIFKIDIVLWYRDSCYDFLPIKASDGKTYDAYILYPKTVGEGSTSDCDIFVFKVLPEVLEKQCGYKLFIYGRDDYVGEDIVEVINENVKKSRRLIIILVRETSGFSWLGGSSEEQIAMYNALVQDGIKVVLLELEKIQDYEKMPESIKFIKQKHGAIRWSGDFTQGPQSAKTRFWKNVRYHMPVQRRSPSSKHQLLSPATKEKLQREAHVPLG", "assay": "HEK-Blue IL1R cell-based IL-1R signaling reporter assay (SEAP, Quanti-Blue, absorbance 655 nm)", "protocol": "HEK-Blue IL1R cells: Human embryonic kidney (HEK) cells expressing murine and human IL-1 receptor proteins, as well as expressing secreted embryonic alkaline phosphatase under NF-kB/AP1 transcriptional control (HEK-Blue IL1R, InvivoGen), were maintained in DMEM with 10% FBS, 2 mM glutamine, 50 U/mL penicillin, 50 μg/ml streptomycin, 100 μg/ml Normocin, 200 μg/mL hygromicin B, 1 μg/mL puromycin, and 100 μg/ml Zeocin. Heat inactivated human serum tested negative for background alkaline phosphatase activity. In initial experiments, HEK-Blue IL1R cells were treated for 24 hours with 0-100 ng/mL recombinant human IL-1β (Peprotech) in the presence of 0-200 ng/mL anakinra. In subsequent experiments, cells were treated with 32 pg/mL IL-1β for all conditions. After 3 hours, saturating concentrations (10 μg/mL) of anakinra were added to the cells to block further IL-1R signaling, and endpoint supernatants were collected at 24 hours. Supernatants (20-40 μL) were mixed with prewarmed QUANTI-Blue reagent (160 μL, InvivoGen) and incubated at 37° C. in a Spectramax M3 multi-mode microplate reader (Molecular Devices). Absorbance at 655 nm was recorded every 5 minutes for 3 hours via kinetic read. The basal absorbance of untreated HEK-Blue IL-1R cell supernatant was subtracted from all samples to normalize for non-specific signal.\nGiven that both IL-1β and IL-1RA were elevated in FIRES patient serum, experiments were conducted to determine whether the elevation translated into a change in overall IL-1R signaling activity. To develop a sensitive functional measurement of IL-1R signaling activity, a cell based assay using HEK-Blue IL1R cells was developed and optimized. These cells express human IL-1R and respond to IL-1R signaling-induced NFκB activity by producing secreted embryonic alkaline phosphatase (SEAP), which dose-dependently results in increased absorbance of 655 nm wavelength light upon incubation with Quanti-Blue substrate (FIG. 2A).\nTo investigate this possibility, the antagonistic activity of FIRES patient CSF-derived IL-1RA was assessed using an in vitro HEK-Blue IL1R cell-based assay. […] Thus, HEK-Blue IL1R cells were treated with 32 pg/mL IL-1β in the presence of either 50% dialyzed FIRES patient CSF containing 65 pM patient IL-1RA or 50% dialyzed CSF derived from NPH patients that was supplemented with recombinant IL-1RA prior to dialysis to reach concentrations of IL-1RA equimolar to that seen in FIRES patient CSF. The percent inhibition of IL-1R-induced SEAP was then compared in cells treated with 50% CSF containing 65 pM FIRES patient IL-1RA vs. 50% CSF containing 65 pM anakinra."}, "[3]": {"assay": "IL-1RA ELISA in FIRES patient serum and CSF before and after initiation of anakinra treatment", "format": "in vivo, human", "settings": "detects the exogenous IL-1RA", "protocol": "IL-1RA enzyme-linked immunosorbent assay: The human IL-1RA/IL1F3 Quantikine ELISA kit (R&D Systems) was used according to the manufacturer's instructions. Serum and CSF samples were diluted (1:2-1:5000 in assay diluent) and duplicate samples were measured against a standard curve (31.3-2000 pg/mL in duplicate). After chromogen development, absorbance was measured on a Spectramax M3 multi-mode microplate reader (Molecular Devices). Absorbances falling outside the range of the standard curve were reanalyzed at different dilutions.\nTo determine whether there was a diminished level of endogenous IL-1RA in FIRES patient serum or CSF, IL-1RA levels were measured by enzyme-linked immunosorbent assay (ELISA) in FIRES patient serum and CSF before and after initiation of anakinra treatment, as well as in serum from healthy controls, CSF from normal pressure hydrocephalus patients, and serum and CSF from patients with other seizure disorders. […] IL-1RA was strongly elevated in FIRES CSF compared to normal pressure hydrocephalus controls and patients with ESES or focal epilepsy (FIG. 1C). CSF IL-1β levels, which were only rarely detectable in healthy controls, were also elevated in among FIRES patients (FIG. 1D). […] This finding also was consistent with reports of elevated IL-1RA following seizure activity (Lehtimaki et al., Neuroimmunomodulation 17(1):19-22, 2010)."}}, "data": [{"substance": "anakinra: recombinantly-produced human IL-1RA", "values": [{"measurement": "clinical response of seizure disorder", "setting": "[1]", "value": "some children with FIRES respond"}, {"measurement": "suppression of the measured increase in IL-1R activity elicited by serum plus IL-1β", "setting": "[2]; 32 pg/mL IL-1β in the presence of 10% serum (HC, FE, FIRES, ESES), all conditions, FIG. 3E", "value": "at least partially suppressed"}, {"measurement": "IL-1R signaling in IL-1β treated HEK cells compared to unsupplemented NPH CSF", "setting": "[2]; 32 pg/mL IL-1β, 50% dialyzed NPH CSF supplemented with 65 pM, FIG. 5B", "value": "significantly less IL-1R signaling"}, {"measurement": "inhibition of IL-1R signaling in dialyzed CSF", "setting": "[2]; CSF dialyzed against DMEM/F12, 100 Dalton cut off membrane, FIG. 4D", "value": "restored anakinra-mediated inhibition"}, {"measurement": "blockade of IL-1β-induced IL-1R signaling (SEAP)", "setting": "[2]; HEK-Blue IL1R cells, co-treatment with IL-1β, FIG. 2B", "value": "competitively blocked"}, {"measurement": "inhibition of IL-1R signaling in undialyzed CSF", "setting": "[2]; media containing 50% control CSF or artificial CSF, compared to complete media, FIGS. 4A-4C", "value": "did not show inhibition of IL-1R signaling"}, {"measurement": "CSF level of IL-1RA following treatment", "setting": "[3]; FIRES patient CSF", "value": "further increased"}, {"measurement": "serum level of IL-1RA following treatment", "setting": "[3]; FIRES patient serum", "value": "further increased"}]}]}
